# Results: patent US20130252821A1, “METHODS AND COMPOSITIONS FOR THE TREATMENT AND DIAGNOSIS OF DISEASES CHARACTERIZED BY VASCULAR LEAK, HYPOTENSION, OR A PROCOAGULANT STATE” (Beth Israel Deaconess Medical Center, Inc., priority 2005, published 2013)
# Entries after “also recorded” stand apart in the source; their conditions may differ.
# Columns and labels:
# Rac1 = Rac1 activity assay (pull-down); assay type: cell-based, human
# Method: These were performed and quantified using the commercially available kit according to the manufacturer's instruction (Cytoskeleton, Denver, Colo.). After signal starvation, HMVEC-L were treated with vehicle, Ang-1 (100 ng/ml) with or without inhibitor for the indicated time and harvested with lysis buffer. Following a brief centrifugation to remove cell debris, lysates from the cells containing equivalent protein concentrations were incubated for 60 minutes with 40 μL slurry of a GST-fusion protein composed of Rac1 or RhoA effector proteins coupled to agarose beads. After washing with lysis buffer, samples were subjected to immunoblotting and detected with anti-Rac1 or anti-RhoA antibody (Santa Cruz Biotechnology, Santa Cruz, Calif.). Whole cell lysates were also run to determine the total amount of Rac1 or RhoA protein.
# HMVEC-L = test: Immunohistochemistry of HMVEC-L (F-actin, MLC-P, VE-cadherin); assay type: cell-based, human
# Method: HMVEC-L were grown to confluent on glass coverslips coated with 0.1% gelatin (Attachment factor, Cascade Biologics, Portland, Oreg.) in 5% FBS/EGM2. […] We used rhodamine phalloidin (Molecular Probe) for F-actin staining and TOPRO®-3-iodine (Molecular Probe) for nuclear staining. Fluorescence images were obtained using a Bio Rad MRC confocal fluorescence microscope.
# [1] = tested on: mice (female FVB strain), lung; test: Lung histology after LPS; assay type: in vivo, mouse; settings: Ang-1 10 μg ip x 2 doses
# Method: Mice were treated as above and lungs were harvested, fixed in 10% formalin, embedded in paraffin, sectioned, and stained with hematoxilin and eosin. In Vivo Delivery of siRNA: Delivery of siRNA into mice was performed by TransIT® Hydrodynamic delivery solution (Mires, Madision, Wis.) per the manufacturer's instruction. Mice were injected with either 10 μg control siRNA or 10 μg p190RhoGAP siRNA in 2 nil delivery solution injected into the tail vein over 7 seconds. Four days later, p190RhoGAP knockdown was confirmed by lysing organs in RIPA buffer and performing Western analysis as outlined above. In vivo permeability and histological examination were performed as described above.
# p190RhoGAP = p190RhoGAP phosphorylation in HMVEC-L; assay type: cell-based, human; settings: Ang-1 100 ng/ml
# Method: (§1) We lysed HMVEC-L with Triton buffer (50 mM Tris-HCl pH 8.0, 150 mM NaCl, 1% Triton X 100, and 5 mM EDTA) supplemented with protease inhibitors (Roche Diagnostics), 1 mM NaF and 1 mM Na3VO4, adjusting protein concentration by BCA protein assay (Pierce) and incubated 200 μg of total protein with anti-Tie2-Ab (clone Ab33, Upstate, Lake Placid, N.Y.) or p190RhoGAP Ab (Transduction laboratory, Lexington, Ky.) for 3 hours, followed by incubation with protein A sepharose (Zymed, San Francisco, Calif.) for 2 hours at 4° C. After washing the beads, proteins were eluted by heating in SDS-sample buffer and detected by immunoblotting with anti-phospho-tyrosine (clone 4G10, Upstate), anti-Tie-2 Ab, or anti-p190RhoGAP Ab.
# Tie2 = Tie2 phosphorylation by Ang-1 in HMVEC-L; assay type: cell-based, human; settings: Ang-1 100 ng/ml, 15 minutes
# Method: as §1
# p85 subunit of PI3K = test: PI3K activity assay (p85 phosphorylation ELISA); assay type: cell-based, human; settings: Ang-1 100 ng/ml, 15 minutes
# Method: After signal starvation, HMVEC-L were treated with vehicle or Ang-1 (100 ng/ml) for 15 minutes. Total and phosphorylated p85 subunits of PI3K were quantified using a commercial enzyme-linked immunosorbent assay according to the manufacturer's instruction (Active Motif, Carlsbad, Calif.). Phosphorylated PI3K p85 subunit was corrected by total PI3K.
# HMVEC-L monolayers = test: Immunostaining of HMVEC-L bathed in HD IL-2 patient serum; assay type: cell-based, human; settings: 1:10 serum for 30 minutes, then Ang-1 100 ng/mL
# Method: Human pulmonary arterial microvascular endothelial cells (HMVECs) (Cambrex Bio Science, Walkersville, Md., United States) cells were cultured in EBM-2 (Cambrex Bio Science) supplemented with 5% fetal bovine serum (FBS) and growth factors according to the manufacturer's instructions. Serum starvation was performed by incubation in 0.25% FBS/EBM-2 for 24 hours.
# HMVECs were grown to confluence on glass coverslips coated with 1% gelatin. The cells were fixed for 10 minutes in 4% paraformaldehyde in PBS, and incubated for 5 min in 0.5% Triton X-100 in PBS. After blocking, the monolayers were processed for staining with anti-VE-cadherin monoclonal antibody (BD Biosciences Pharmingen, San Diego, Calif., United States) and Alexa Fluor® 488 goat anti-mouse IgG, rhodamine phalloidin (Molecular Probes, Eugene, Oreg., […]) for F-actin staining and TOPRO-3-iodine (Molecular Probes) for nuclear staining. Fluorescence images were obtained using a Bio Rad MRC confocal fluorescence microscope. For experiments using cells treated with serum from patients, serum Ang-2 concentration was first measured by ELISA. Then, patient serum was diluted to 10% with EBM-2 and filtered with low-protein-binding PVL) F membrane (0.22 lm Millipore) prior to application on EC monolayers.
# [2] = tested on: mice (female FVB strain), lung; test: In vivo permeability assay (Evans blue, LPS); design: species or system mouse; settings: Ang-1 10 mcg ip x 2 doses
# Method: Mice (8-12 weeks old, female FVB strain) were pretreated with Ang-1 (10 mcg, ip). 8 hours after the first Ang-1 injection, the second dose of Ang-1 (10 mcg, ip) and LPS (100 μg, ip) were co-injected. Lung permeability was assessed 16 hours after the second injection. Mice were anesthetized with Avertin (2,2,2-Tribromoethanol) and 2% Evans blue (50 μl) was then injected into the retro-orbital sinus. Ten minutes after Evans blue injection, mice were sacrificed and perfused with PBS with 2 mM EDTA for 10 minutes through a cannula placed in the right ventricle. […] Organs were then harvested and homogenized in 1.5 nil formamide. Evans blue was extracted by incubating the samples at 70° C. for 24 hours, and the concentration of Evans blue was estimated by dual-wavelength spectrophotometer (620 and 740 nm). The following formula was used to correct optical densities (E) for contamination with heme pigments: E620 (corrected)=E620−(1.426XE740+0.030).
molecule,measurement,setting,value
"Ang-1: Human recombinant angiopoietin-1 purchased from R&D systems; Tie-2 agonist, endogenous Ang-2 antagonist (protein, listed as Homo sapiens) MTVFLSFAFLAAILTHIGCSNQRRSPENSGRRYNRIQHGQCAYTFILPEHDGNCRESTTDQYNTNALQRDAPHVEPDFSSQKLQHLEHVMENYTQWLQKLENYIVENMKSEMAQIQQNAVQNHTATMLEIGTSLLSQTAEQTRKLTDVETQVLNQTSRLEIQLLENSLSTYKLEKQLLQQTNEILKIHEKNSLLEHKILEMEGKHKEELDTLKEEKENLQGLVTRQTYIIQELEKQLNRATTNNSVLQKQQLELMDTVHNLVNLCTKEGVLLKGGKREEEKPFRDCADVYQAGFNKSGIYTIYINNMPEPKKVFCNMDVNGGGWTVIQHREDGSLDFQRGWKEYKMGFGNPSGEYWLGNEFIFAITSQRQYMLRIELMDWEGNRAYSQYDRFHIGNEKQNYRLYLKGHTGTAGKQSSLILHGADFSTKDADNDNCMCKCALMLTGGWWFDACGPSNLNGMFYTAGQNHGKLNGIKWHYFKGPSYSLRSTTMMIRPLDF",Rac1 activity,Rac1; HMVEC-L treated with Ang-1,increased within 15 minutes
same,effect on endotoxin-induced change of Rac1 activity,Rac1; co-incubation with Ang-1,reversed
same,cytoskeleton and junction staining compared to control cells,"HMVEC-L; Ang-1, confluent HMVEC-L, 30 min","increase in cortical actin, peripheral MLC-P, and increased VE-cadherin staining at cell junctions"
same,effect on endotoxin-induced structural derangements,HMVEC-L; endotoxin plus Ang-1,reverted the endotoxin-induced derangements to a normal appearance
same,effect on LPS-induced edema and leukocyte infiltration,[1],reversed
same,phosphorylation of p190RhoGAP,p190RhoGAP,induces phosphorylation of p190RhoGAP
same,Tie2 phosphorylation,Tie2,induces Tie2 phosphorylation
same,phosphorylation of the p85 subunit of PI3K,p85 subunit of PI3K,induces phosphorylation of the p85 subunit of PI3K
same,rescue of endothelial disruption by high Ang-2 HD IL-2 patient serum,HMVEC-L monolayers,significant attenuation in stress fiber formation; also recorded: rescue effect of Ang-1 was confirmed
same,effect on endotoxin-increased lung permeability,[2],blocked
